Laboratory results reported in US7740850B2, “PDGFRβ-specific antibodies” (ImClone, LLC, priority 2007, dated 2010).

Assays:
human PDGFRα = human PDGFRα (Homo sapiens, UniProt P16234); test: Binding to PDGFRα
mPDGFRβ = mPDGFRβ (Mus musculus, UniProt P05622); test: Antibody affinity determination (BIAcore, surface plasmon resonance); format: binding
Description: Antibody affinity determination. The binding kinetics of various Fab and IgG to mPDGFRβ were measured using a BIAcore 3000 biosensor (BIACORE, Inc., Uppsala, Sweden). Briefly, mPDGFRβ was immobilized onto a sensor chip and soluble antibodies were injected at concentrations ranging from 1.5 nM to 100 nM. Sensorgrams were obtained at each concentration and were evaluated using the program, BIA Evaluation 2.0. The affinity constant, Kd, was calculated from the ratio of dissociation rate (koff)/association rate (kon) (Lu, D. et al., 2002; Zhu, Z. et al., 1998; Loizos, N. et al., 2005).

[1] = system: OV-CAR-5 ovarian carcinoma xenograft; test: Subcutaneous tumor xenograft model; format: in vivo, mouse; conditions: for Tumor Volume T/C %: OVCAR-5 xenograft, monotherapy
Description: (§1) Six xenograft models, SK-OV-3, OV-CAR-8, BxPC-3, OV-CAR-5, Caki-1 and NCI-H460 (A to F, respectively) were used to examine the effects of 1B3 on xenograft tumors in athymic nude mice. Mice with established tumors (˜250-300 mm^3) were randomly grouped and treated with 1B3, normal human IgG, or saline by intraperitoneal injection twice weekly (except for BxPC-3 model where the mice were treated three times a week) at the dose indicated. Tumor volumes were measured twice a week and are presented as mean±SEM. *1 indicates the loss of one mouse due to severe illness. 1B3 binds to mouse, but not human, PDGFRβ. Accordingly, the observed responses to treatment result from inhibition of stimulation of host cells.
(§2) Antitumor activity of anti-mPDGFRβ antibody in tumor xenograft models. Six human xenograft tumor models, including three ovarian carcinoma (SK-OV-3, OV-CAR-5 and OV-CAR-8), one pancreatic carcinoma (BxPC3), one lung carcinoma (NCI-H460), and one kidney carcinoma (Caki-1), were used to assess the antitumor activity of 1B3 in vivo. Athymic (nu/nu) mice (female, 7-8 weeks of age) were housed for 7-10 days before xenograft implantation. Each mouse was injected subcutaneously with 3-10×10^6 cells of SK-OV-3, OVCAR-5, OVCAR-8, Caki-1, BxPC3 or NCI-H460 tumor cells. When tumors reached approximately 250-300 mm^3, mice were randomized into groups of 10 to 12 animals each and treated by intraperitoneal injection, 2 to 3 times per week, with 1B3, DC101, or 1B3 in combination with DC101. Human IgG and/or USP saline were used as control groups. Tumor sizes and mouse body weight were measured twice a week. Tumor volume was calculated using the formula: π/6×(length×width^2), where length=longest diameter and width=diameter perpendicular to length. The ratio of average tumor volume in the treatment group versus that in the control group (T/C %) was calculated. Statistic analysis was performed by Student's t-test.
(§3) To study the antitumor effects of monotherapy with an anti-PDGFRβ antibody, mice were treated with 1B3, normal human IgG, or saline twice weekly by intraperitoneal injections. In SK-OV-3 model, tumor-bearing mice were given 1B3 at 6, 20, or 60 mg/kg dose.
(§4) Antitumor activity of anti-PDGFRβ antibody in tumor xenograft models. The five human xenograft tumor models described above (OVCAR-5 and OVCAR-8, BxPC3, NCI-H460, and Caki-1) were used to assess the antitumor activity of 2C5 in vivo. 2C5 which binds to and inhibits human PDGFRβ receptors of the tumor and mouse receptors of the vasculature was compared to 1B3 which bound only to mouse vasculature. […] (FIG. 9; Table 2).

[2] = system: OV-CAR-8 ovarian carcinoma xenograft; test: Subcutaneous tumor xenograft model; format: in vivo, mouse; conditions: for Tumor Volume T/C %: OVCAR-8 xenograft, monotherapy
Description: as §1, §2, §3, §4

[3] = system: Akt and p44/42 MAP kinase in D122 cells; test: PDGF-BB-stimulated downstream signaling (Western blot); format: cell-based, mouse
Source text: To study the downstream signaling, the cell lysate from the above treatment were resolved by a 4-12% NuPAGE Bis-Tris gel. Phosphorylated Akt and p44/42 mitogen-activated protein kinase (MAPK) were detected using an anti-phospho-Akt and an anti-phospho-p44/p42 MAPK and p44/p42 MAPK, respectively (eBioscience, San Diego, Calif.).

[4] = system: BxPC-3 pancreatic carcinoma xenograft; test: Subcutaneous tumor xenograft model; format: in vivo, mouse; conditions: for Tumor Volume T/C %: BxPC3 xenograft, monotherapy
Description: Six xenograft models, SK-OV-3, OV-CAR-8, BxPC-3, OV-CAR-5, Caki-1 and NCI-H460 (A to F, respectively) were used to examine the effects of 1B3 on xenograft tumors in athymic nude mice. Mice with established tumors (˜250-300 mm^3) were randomly grouped and treated with 1B3, normal human IgG, or saline by intraperitoneal injection twice weekly (except for BxPC-3 model where the mice were treated three times a week) at the dose indicated.
Subcutaneous xenografts of BxPC-3 (A) or 5×10^6 NCI-H460 (B) were established in female athymic (nu/nu) mice. When tumors reached ˜300-350 mm^3, mice were randomized and divided into four groups (n=12), and treated with USP saline, 40 mg/kg of 1B3, 40 mg/kg of DC101 or 40 mg/kg 1B3 plus 40 mg/kg DC101, three times a week.
as §2, with “Six” for “Antitumor activity of anti-mPDGFRβ antibody in tumor xenograft models. Six”
as §3
Athymic nude mice bearing xenografted tumors of 300-350 mm^3 size were randomized and divided into four treatment groups (n=12/group), and were treated by intraperitoneal injections three times a week with saline, 1B3 (40 mg/kg), DC101 (40 mg/kg), or 1B3 (40 mg/kg) plus DC101 (40 mg/kg).
The five human xenograft tumor models described above (OVCAR-5 and OVCAR-8, BxPC3, NCI-H460, and Caki-1) were used to assess the antitumor activity of 2C5 in vivo.

Sequence of mPDGFRβ (P05622 32-1098): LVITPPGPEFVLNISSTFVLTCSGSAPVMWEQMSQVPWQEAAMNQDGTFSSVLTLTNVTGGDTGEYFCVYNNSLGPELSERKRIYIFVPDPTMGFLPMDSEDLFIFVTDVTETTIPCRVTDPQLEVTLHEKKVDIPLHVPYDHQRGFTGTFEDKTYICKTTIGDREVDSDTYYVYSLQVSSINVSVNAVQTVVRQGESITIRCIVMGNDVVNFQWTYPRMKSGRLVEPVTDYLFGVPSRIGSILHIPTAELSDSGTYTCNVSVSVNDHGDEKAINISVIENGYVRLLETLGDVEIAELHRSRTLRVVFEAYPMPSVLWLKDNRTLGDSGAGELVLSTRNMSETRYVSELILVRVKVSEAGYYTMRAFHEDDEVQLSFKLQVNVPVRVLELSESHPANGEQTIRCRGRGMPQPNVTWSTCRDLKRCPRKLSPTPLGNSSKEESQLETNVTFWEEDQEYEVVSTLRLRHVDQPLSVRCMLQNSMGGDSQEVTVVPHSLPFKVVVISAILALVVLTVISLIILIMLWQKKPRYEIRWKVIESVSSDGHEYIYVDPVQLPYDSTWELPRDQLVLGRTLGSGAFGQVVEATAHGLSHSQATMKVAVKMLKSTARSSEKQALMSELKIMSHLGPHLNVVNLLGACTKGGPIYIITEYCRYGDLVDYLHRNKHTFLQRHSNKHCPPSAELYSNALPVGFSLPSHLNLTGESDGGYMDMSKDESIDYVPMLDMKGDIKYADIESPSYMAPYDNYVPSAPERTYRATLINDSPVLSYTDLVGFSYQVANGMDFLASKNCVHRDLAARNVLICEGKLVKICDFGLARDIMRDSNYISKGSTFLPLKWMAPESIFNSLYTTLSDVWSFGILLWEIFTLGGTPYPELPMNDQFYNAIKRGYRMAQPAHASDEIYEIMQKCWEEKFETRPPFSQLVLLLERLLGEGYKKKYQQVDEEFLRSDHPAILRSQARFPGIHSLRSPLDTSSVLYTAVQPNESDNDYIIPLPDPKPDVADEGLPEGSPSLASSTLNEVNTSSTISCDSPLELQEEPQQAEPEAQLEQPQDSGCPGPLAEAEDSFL
Sequence of human PDGFRα (P16234 24-1089): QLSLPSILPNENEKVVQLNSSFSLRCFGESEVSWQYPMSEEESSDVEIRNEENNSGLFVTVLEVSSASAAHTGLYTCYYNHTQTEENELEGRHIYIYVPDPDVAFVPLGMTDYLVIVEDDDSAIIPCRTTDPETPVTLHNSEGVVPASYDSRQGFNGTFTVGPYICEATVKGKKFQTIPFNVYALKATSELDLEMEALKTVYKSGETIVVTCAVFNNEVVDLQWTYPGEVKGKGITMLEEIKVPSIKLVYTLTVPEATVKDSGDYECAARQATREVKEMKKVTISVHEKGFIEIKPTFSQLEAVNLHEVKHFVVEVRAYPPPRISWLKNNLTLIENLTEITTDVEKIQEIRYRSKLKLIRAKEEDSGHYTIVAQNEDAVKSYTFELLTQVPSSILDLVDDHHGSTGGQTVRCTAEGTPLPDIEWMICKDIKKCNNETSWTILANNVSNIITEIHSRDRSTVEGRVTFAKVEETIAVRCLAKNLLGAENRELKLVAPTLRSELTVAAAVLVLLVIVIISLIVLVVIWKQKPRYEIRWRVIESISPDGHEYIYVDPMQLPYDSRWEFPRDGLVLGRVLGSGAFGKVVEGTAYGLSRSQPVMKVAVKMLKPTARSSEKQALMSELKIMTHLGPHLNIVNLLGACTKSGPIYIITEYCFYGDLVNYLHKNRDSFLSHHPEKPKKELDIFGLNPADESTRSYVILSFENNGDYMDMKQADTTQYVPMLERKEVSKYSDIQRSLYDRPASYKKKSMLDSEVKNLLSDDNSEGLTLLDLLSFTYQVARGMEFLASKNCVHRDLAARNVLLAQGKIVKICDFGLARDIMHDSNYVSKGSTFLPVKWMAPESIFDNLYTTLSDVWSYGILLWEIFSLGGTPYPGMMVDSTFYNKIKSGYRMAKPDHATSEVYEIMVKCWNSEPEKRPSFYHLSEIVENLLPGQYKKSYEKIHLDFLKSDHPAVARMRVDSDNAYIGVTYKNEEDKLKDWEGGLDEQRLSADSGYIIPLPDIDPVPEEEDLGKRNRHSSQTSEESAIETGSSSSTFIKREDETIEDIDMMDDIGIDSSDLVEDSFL

| Molecule | binding to human PDGFRα (human PDGFRα) | Kd (mPDGFRβ; surface plasmon resonance, one experiment) [nM] | Tumor Volume T/C % [1] [%] | Tumor Volume T/C % [2] [%] | inhibition of PDGF-BB-stimulated phosphorylation of Akt and p44/42 MAP kinase [3] | Tumor Volume T/C % [4] [%] | increase of affinity for mPDGFRβ of IgG over its Fab form (mPDGFRβ; BIAcore) | antitumor activity ([1]; OV-CAR-5, 40 mg/kg three times per week or 60 mg/kg twice weekly) | tumor growth inhibition ([2]; OV-CAR-8, 60 mg/kg i.p. twice weekly) | tumor regression, number of mice ([4]; BxPC3, 40 mg/kg each antibody i.p. three times a week) | antitumor activity ([4]; BxPC3, monotherapy 40 mg/kg i.p. three times a week) |
| --- | --- | --- | --- | --- | --- | --- | --- | --- | --- | --- | --- |
| 2C5: PDGFRβ-specific human antibody binding both human and murine PDGFRβ; SEQ ID NOS in Table 1 (antibody, listed as Homo sapiens, V domains shown) VH: QVQLVQSGAEVKKPGSSVKVSCKASGGTFSSYAISWVRQAPGQGLEWMGRIIPILGIANYAQKFQGRVTITADKSTSTAYMELSSLRSEDTAVYYCARDMGSRNYYYFYWGQGTLVTVSS VL: EIVLTQSPATLSLSPGERATLSCRASQSVGRYLAWYQQKPGQAPRLLIYGASNRATGIPARFSGSGSGTDFTLTISSLEPEDFAVYYCQQRSNWPLTFGGGTKVEIK | does not bind | 0.0605 | 84 | 39 | potently inhibited | 100 |  |  |  |  |  |
| 1B3: human anti-mouse PDGFRβ antibody from Fab phage display library, human κ/γ1 constant regions; SEQ ID NOS in Table 1 (antibody, listed as Homo sapiens, V domains shown, human kappa/gamma1 constant regions) VH: QVQLQESGGGLVKPGGSLRLSCAASGFTFSSYSMNWVRQAPGKGLEWVSSISSSSSYIYYADSVKGRFTISRDNSKNTLYLQMNSLRAEDTAVYYCAKGGRPLLVFDFWGQGTLVTVS VL: EIVMTQSPGTLSLSPGERATLSCRASQSVSSSYLAWYQQKPGQAPRLLIYDASKRATGIPARFSGSGSGTDFTLTISTLESEDSAVYYCQQRGYWPPITFGQGTRLEIKR | did not bind |  | 92 | 43 | potently inhibited | 100 | approximately 57 times | failed to show any antitumor activity | almost completely blocked the growth | no regressions | failed to show any antitumor activity |
